# Laboratory results taken from patent US20190225686A1 (Daiichi Sankyo, published 2019).
# Experiments:
# human GPR20 [1] = biological target: T1, human GPR20 (human, UniProt Q99678 1-358); experiment: cell-based or functional assay
# [2] = biological target: T2, human/mouse chimeric GPR20 in which EC2 of human GPR20 was substituted with EC2 of mouse GPR20 (human, UniProt Q99678 1-358); experiment: Cell-ELISA on 293a cells transiently expressing hGPR20_mECD2
# T2 construct: also called hGPR20_mECD2
# Protocol: (§1) The cells were left standing at 4° C. for 1 hour. […] The cells were left standing at 4° C. for 1 hour. The cells in the wells were washed three times with PBS (+) supplemented with 5% FBS, and thereafter, OPD chromogenic solution (which had been prepared by dissolving o-phenylenediamine dihydrochloride (Wako Pure Chemical Industries, Ltd.) and H₂O₂ in an OPD solution (0.05 M trisodium citrate, 0.1 M disodium hydrogen phosphate 12-water; pH 4.5), so that the substances became 0.4 mg/ml and 0.6% (v/v), respectively) was added in an amount of 100 μL/well to the wells. A coloring reaction was carried out with occasional stirring. Thereafter, 1 M HCl was added to the plate (100 μL/well) to terminate the coloring reaction, followed by measurement of the absorbance at 490 nm using a plate reader (ENVISION: PerkinElmer, Inc.).
# mouse GPR20 = biological target: T3, mouse GPR20 (mouse, UniProt Q8BYC4 1-358); experiment: Cell-ELISA on 293a cells transiently expressing mouse GPR20
# T3 construct: whole, on cells; also called mGPR20; mouse GPR20 (NP_775541)
# Protocol: as §1
# [3] = biological target: GPR20-EGFP protein comprising human GPR20 linked at its C-terminus to EGFP (human, UniProt Q99678 1-358); experiment: cell-based or functional assay
# human GPR20 [4] = biological target: T1, human GPR20; experiment: flow cytometry on 293T cells transfected with pcDNA3.1-hGPR20
# Protocol: The cells were cultured overnight under conditions of 37° C. and 5% CO₂, and thereafter, a cell suspension was prepared. To the obtained cell suspension, each humanized anti-GPR20 antibody was added, and the obtained mixture was left standing at 4° C. for 1 hour. […] The cells were left standing at 4° C. for 1 hour. The cells were washed twice with PBS supplemented with 5% FBS, and then re-suspended in PBS supplemented with 5% FBS, followed by detection using a flow cytometer (BD FACSCant II; BD Biosciences). The data was analyzed using Flowjo (Tree Star, Inc.). […] In the histograms of FIG. 24, the abscissa depicts the fluorescence intensity of PE indicating the amount of the antibody bound, and the ordinate depicts a cell count.
# T1 sequence (Q99678 whole entry): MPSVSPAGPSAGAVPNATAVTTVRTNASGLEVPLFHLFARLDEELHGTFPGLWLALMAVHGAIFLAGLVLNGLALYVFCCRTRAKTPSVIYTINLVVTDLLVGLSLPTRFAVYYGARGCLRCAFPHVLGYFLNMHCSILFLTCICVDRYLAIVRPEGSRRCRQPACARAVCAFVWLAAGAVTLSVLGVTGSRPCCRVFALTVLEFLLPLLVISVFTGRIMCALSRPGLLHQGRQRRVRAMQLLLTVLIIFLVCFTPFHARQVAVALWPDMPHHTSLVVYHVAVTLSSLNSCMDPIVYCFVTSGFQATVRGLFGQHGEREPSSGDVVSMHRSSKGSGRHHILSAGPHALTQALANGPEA
# Sequence of GPR20-EGFP protein comprising human GPR20 linked at its C-terminus to EGFP (Q99678 whole entry): as above
# T3 sequence (Q8BYC4 whole entry): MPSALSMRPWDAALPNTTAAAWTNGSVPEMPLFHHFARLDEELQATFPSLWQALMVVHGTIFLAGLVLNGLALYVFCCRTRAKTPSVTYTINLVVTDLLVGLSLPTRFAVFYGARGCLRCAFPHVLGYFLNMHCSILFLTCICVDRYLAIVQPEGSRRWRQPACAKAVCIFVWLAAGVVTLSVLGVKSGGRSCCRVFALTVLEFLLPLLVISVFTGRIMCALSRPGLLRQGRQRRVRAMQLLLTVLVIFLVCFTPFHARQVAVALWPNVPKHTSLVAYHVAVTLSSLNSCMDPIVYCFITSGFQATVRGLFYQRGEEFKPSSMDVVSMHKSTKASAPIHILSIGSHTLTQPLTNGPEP
# T2 sequence (Q99678 other isoform, or with tags, fused parts or gaps mutant): as the sequence (Q99678 whole entry) above, with Y113F counted along it
Binder,binding result (human GPR20 [4]),also measured
"rat anti-GPR20 antibody 04-079 (antibody, rat IgG2b, V domains shown, Rat IgG2b, kappa; also called 04-079 antibody) VH: QVQLQQSGAELAKPGSSVKISCKASGYTFTSYYITWIKQTTGQGLKYIGYINPGSGHTNYNEKFKGKATLTVDKSSSTAFMQLSSLTPDDSAVYYCARGAGGFLRIISKFDYWGQGVMVTVSS VL: DTVLTQSPALAVSLGQRVTISCRASKSVSTYMHWYQQRSGQQPKLLIYSASNLESGVPSRFSGSGSGTDFTLTIDPVKADDITNYYCQQSNELPYTFGAGTKLELKR",,cell proliferation suppression rate (Rat-ZAP internalization screening) (human GPR20 [1]): ≥ 60%; binding result [2]: no binding; binding result (mouse GPR20): no binding; Cell survival rate (%) in internalization activity evaluation [3]: 62%
"humanized h046-H10/L6 (antibody, human IgG1, kappa, V domains shown, the claims and summary say 20 to 474) VH: QVQLQQSGAELAKPGSSVKVSCKASGYTFTSYYISWIKQTTGQGLKYIGFINPGSGHTNYNEKFKGKATLTVDKSSSTANMQLSSLTPDDSAIYYCARGAGGFLRIITKFDYWGQGVMVTVSS VL: DTQLTQSPSSLSASVGDRVTITCRASKSVSTYIHWYQQKPGKQPKLLIYSASDRESGVPSRFSGSGSGTDFTLTISSLQPEDFANYYCQQINELPYTFGQGTKVEIKR",binds,
"antibody-drug conjugate (12) h046-H10/L6-ADC1 (antibody, human IgG1, kappa, V domains shown, ADC1 exatecan drug linker on the interchain-disulfide cysteine, thioether bond; position not given; ADC1 exatecan drug linker (maleimidocaproyl-GGFG-NH-CH2-O-CH2-C(=O)-(NH-DX)) on cysteine sulfhydryls of reduced interchain disulfides, thioether bond; positions not given, average drug number 5.5 (E) / 8.0 (F)) VH: QVQLQQSGAELAKPGSSVKVSCKASGYTFTSYYISWIKQTTGQGLKYIGFINPGSGHTNYNEKFKGKATLTVDKSSSTANMQLSSLTPDDSAIYYCARGAGGFLRIITKFDYWGQGVMVTVSS VL: DTQLTQSPSSLSASVGDRVTITCRASKSVSTYIHWYQQKPGKQPKLLIYSASDRESGVPSRFSGSGSGTDFTLTISSLQPEDFANYYCQQINELPYTFGQGTKVEIKR",binds,
"rat anti-GPR20 antibody 04-046 (antibody, rat IgG2b, Rat IgG2b, kappa; also called 04-046 antibody) heavy: QVQLQQSGAELAKPGSSVKISCKASGYTFTSYYISWIKQTTGQGLKYIGFINPGSGHTNYNEKFKGKATLTVDKSSSTAFMQLSSLTPDDSAIYYCARGAGGFLRIITKFDYWGQGVMVTVSSAQTTAPSVYPLAPGCGDTTSSTVTLGCLVKGYFPEPVTVTWNSGALSSDVHTFPAVLQSGLYTLTSSVTSSTWPSQTVTCNVAHPASSTKVDKKVERRNGGIGHKCPTCPTCHKCPVPELLGGPSVFIFPPKPKDILLISQNAKVTCVVVDVSEEEPDVQFSWFVNNVEVHTAQTQPREEQYNSTFRVVSALPIQHQDWMSGKEFKCKVNNKALPSPIEKTISKPKGLVRKPQVYVMGPPTEQLTEQTVSLTCLTSGFLPNDIGVEWTSNGHIEKNYKNTEPVMDSDGSFFMYSKLNVERSRWDSRAPFVCSVVHEGLHNHHVEKSISRPPGK light: DTVLTQSPALAVSLGQRVTISCRASKSVSTYIHWYQQRSGQQPKLLIYSASNLESGVPSRFSGSGSGTDFTLTIDPVEPDDIANYYCQQINELPYTFGAGTKLELKRADAAPTVSIFPPSTEQLATGGASVVCLMNNFYPRDISVKWKIDGTERRDGVLDSVTDQDSKDSTYSMSSTLSLTKADYESHNLYTCEVVHKTSSSPVVKSFNRNEC",,cell proliferation suppression rate (Rat-ZAP internalization screening) (human GPR20 [1]): ≥ 60%; binding result [2]: no binding; binding result (mouse GPR20): no binding; Cell survival rate (%) in internalization activity evaluation [3]: 57%
"rat anti-GPR20 antibody 04-126 (antibody, rat IgG2b, V domains shown, Rat IgG2b, kappa; also called 04-126 antibody; 04-0126) VH: QVQLRQSGAELAKPGSSVKISCKASGYTFTSYYIIWMKQTAGQGLQYVGYINPGSGHTNYNEKFKGKATLTVDKSSSTAFMQLSSLTPDDSAVYYCARGTGGFLRIISKFDYWGQGVMVTVSS VL: DTVLTQSPALAVSLGQRVTISCRASKSVSTYMHWYQQRSGQQPKLLIYSASTLESGVPSRFSGSGSGTDFTLTIDPVEADDIANYYCQQSNELPYTFGAGTKLELKR",,cell proliferation suppression rate (Rat-ZAP internalization screening) (human GPR20 [1]): ≥ 60%; binding result [2]: no binding; binding result (mouse GPR20): no binding; Cell survival rate (%) in internalization activity evaluation [3]: 54%
"antibody-drug conjugate (1) 046Ch-ADC2 (antibody, human IgG1, ADC2 exatecan drug linker on the interchain-disulfide cysteine, thioether bond; position not given; ADC2 exatecan drug linker (maleimide-PEG2-GGFG-NH-CH2CH2CH2-C(=O)-(NH-DX)) on cysteine sulfhydryls of reduced interchain disulfides, thioether bond; positions not given, average drug number per antibody 5.6 (procedure E)) heavy: not shown light: DTVLTQSPALAVSLGQRVTISCRASKSVSTYIHWYQQRSGQQPKLLIYSASNLESGVPSRFSGSGSGTDFTLTIDPVEPDDIANYYCQQINELPYTFGAGTKLELKRAVAAPSVFIFPPSDEQLKSGTASVVCLLNNFYPREAKVQWKVDNALQSGNSQESVTEQDSKDSTYSLSSTLTLSKADYEKHKVYACEVTHQGLSSPVTKSFNRGEC",binds,
"antibody-drug conjugate (2) 046Ch-ADC1 (antibody, human IgG1, ADC1 exatecan drug linker on the interchain-disulfide cysteine, thioether bond; position not given; ADC1 exatecan drug linker (maleimidocaproyl-GGFG-NH-CH2-O-CH2-C(=O)-(NH-DX)) on cysteine sulfhydryls of reduced interchain disulfides, thioether bond; positions not given, average drug number per antibody 5.6 (procedure E)) heavy: not shown light: DTVLTQSPALAVSLGQRVTISCRASKSVSTYIHWYQQRSGQQPKLLIYSASNLESGVPSRFSGSGSGTDFTLTIDPVEPDDIANYYCQQINELPYTFGAGTKLELKRAVAAPSVFIFPPSDEQLKSGTASVVCLLNNFYPREAKVQWKVDNALQSGNSQESVTEQDSKDSTYSLSSTLTLSKADYEKHKVYACEVTHQGLSSPVTKSFNRGEC",binds,
"humanized h046-H4b/L7 (antibody, human IgG1, kappa, Humanized IgG1 / kappa) heavy: not shown light: DTQLTQSPSSLSASVGDRVTITCRASKSVSTYIHWYQQKPGKQPKLLIYSAGNLESGVPSRFSGSGSGTDFTLTISSLQPEDFANYYCQQINELPYTFGQGTKVEIKRTVAAPSVFIFPPSDEQLKSGTASVVCLLNNFYPREAKVQWKVDNALQSGNSQESVTEQDSKDSTYSLSSTLTLSKADYEKHKVYACEVTHQGLSSPVTKSFNRGEC",binds,
"antibody-drug conjugate h046-H4b/L7-ADC1 (antibody, human IgG1, kappa, ADC1 exatecan drug linker on the interchain-disulfide cysteine, thioether bond; position not given; ADC1 exatecan drug linker (maleimidocaproyl-GGFG-NH-CH2-O-CH2-C(=O)-(NH-DX)) on cysteine sulfhydryls of reduced interchain disulfides, thioether bond; positions not given, also called antibody-drug conjugate (3); antibody-drug conjugate (4)) heavy: not shown light: DTQLTQSPSSLSASVGDRVTITCRASKSVSTYIHWYQQKPGKQPKLLIYSAGNLESGVPSRFSGSGSGTDFTLTISSLQPEDFANYYCQQINELPYTFGQGTKVEIKRTVAAPSVFIFPPSDEQLKSGTASVVCLLNNFYPREAKVQWKVDNALQSGNSQESVTEQDSKDSTYSLSSTLTLSKADYEKHKVYACEVTHQGLSSPVTKSFNRGEC",binds,
"antibody-drug conjugate (7) h046-H4b/L7-ADC2 (antibody, human IgG1, kappa, ADC2 exatecan drug linker on the interchain-disulfide cysteine, thioether bond; position not given; ADC2 exatecan drug linker (maleimide-PEG2-GGFG-NH-CH2CH2CH2-C(=O)-(NH-DX)) on cysteine sulfhydryls of reduced interchain disulfides, thioether bond; positions not given, average drug number 6.1 (E) / 7.6 (F)) heavy: not shown light: DTQLTQSPSSLSASVGDRVTITCRASKSVSTYIHWYQQKPGKQPKLLIYSAGNLESGVPSRFSGSGSGTDFTLTISSLQPEDFANYYCQQINELPYTFGQGTKVEIKRTVAAPSVFIFPPSDEQLKSGTASVVCLLNNFYPREAKVQWKVDNALQSGNSQESVTEQDSKDSTYSLSSTLTLSKADYEKHKVYACEVTHQGLSSPVTKSFNRGEC",binds,
"antibody-drug conjugate h046-H4e/L7-ADC1 (antibody, human IgG1, kappa, ADC1 exatecan drug linker on the interchain-disulfide cysteine, thioether bond; position not given; ADC1 exatecan drug linker (maleimidocaproyl-GGFG-NH-CH2-O-CH2-C(=O)-(NH-DX)) on cysteine sulfhydryls of reduced interchain disulfides, thioether bond; positions not given, also called antibody-drug conjugate (13); antibody-drug conjugate (14)) heavy: not shown light: DTQLTQSPSSLSASVGDRVTITCRASKSVSTYIHWYQQKPGKQPKLLIYSAGNLESGVPSRFSGSGSGTDFTLTISSLQPEDFANYYCQQINELPYTFGQGTKVEIKRTVAAPSVFIFPPSDEQLKSGTASVVCLLNNFYPREAKVQWKVDNALQSGNSQESVTEQDSKDSTYSLSSTLTLSKADYEKHKVYACEVTHQGLSSPVTKSFNRGEC",binds,
"antibody-drug conjugate (8) h046-H5b/L2-ADC2 (antibody, human IgG1, kappa, V domains shown, ADC2 exatecan drug linker on the interchain-disulfide cysteine, thioether bond; position not given; ADC2 exatecan drug linker (maleimide-PEG2-GGFG-NH-CH2CH2CH2-C(=O)-(NH-DX)) on cysteine sulfhydryls of reduced interchain disulfides, thioether bond; positions not given, average drug number 6.0 (E) / 7.7 (F)) VH: QVQLVQSGAEVKKPGASVKVSCKASGYTFTSYYISWIRQAPGQGLKYMGFINPGSGHTNYNEKFKGRVTITADKSSSTANMELSSLRSEDTAVYYCARGAGGFLRIITKFDYWGQGTLVTVSS VL: DIQMTQSPSSLSASVGDRVTITCRASKSVSTYIHWYQQKPGKQPKLLIYSASNLESGVPSRFSGSGSGTDFTLTISSLQPEDFATYYCQQINELPYTFGQGTKVEIKR",binds,
"humanized h046-H4e/L7 (antibody, human IgG1, kappa, Humanized IgG1 / kappa) heavy: not shown light: DTQLTQSPSSLSASVGDRVTITCRASKSVSTYIHWYQQKPGKQPKLLIYSAGNLESGVPSRFSGSGSGTDFTLTISSLQPEDFANYYCQQINELPYTFGQGTKVEIKRTVAAPSVFIFPPSDEQLKSGTASVVCLLNNFYPREAKVQWKVDNALQSGNSQESVTEQDSKDSTYSLSSTLTLSKADYEKHKVYACEVTHQGLSSPVTKSFNRGEC",binds,
"antibody-drug conjugate (5) h046-H5b/L2-ADC1 (antibody, human IgG1, kappa, V domains shown, ADC1 exatecan drug linker on the interchain-disulfide cysteine, thioether bond; position not given; ADC1 exatecan drug linker (maleimidocaproyl-GGFG-NH-CH2-O-CH2-C(=O)-(NH-DX)) on cysteine sulfhydryls of reduced interchain disulfides, thioether bond; positions not given, average drug number 5.4 (E) / 7.9 (F)) VH: QVQLVQSGAEVKKPGASVKVSCKASGYTFTSYYISWIRQAPGQGLKYMGFINPGSGHTNYNEKFKGRVTITADKSSSTANMELSSLRSEDTAVYYCARGAGGFLRIITKFDYWGQGTLVTVSS VL: DIQMTQSPSSLSASVGDRVTITCRASKSVSTYIHWYQQKPGKQPKLLIYSASNLESGVPSRFSGSGSGTDFTLTISSLQPEDFATYYCQQINELPYTFGQGTKVEIKR",binds,
"humanized h046-H5b/L2 (antibody, human IgG1, kappa, V domains shown, Humanized IgG1 / kappa) VH: QVQLVQSGAEVKKPGASVKVSCKASGYTFTSYYISWIRQAPGQGLKYMGFINPGSGHTNYNEKFKGRVTITADKSSSTANMELSSLRSEDTAVYYCARGAGGFLRIITKFDYWGQGTLVTVSS VL: DIQMTQSPSSLSASVGDRVTITCRASKSVSTYIHWYQQKPGKQPKLLIYSASNLESGVPSRFSGSGSGTDFTLTISSLQPEDFATYYCQQINELPYTFGQGTKVEIKR",binds,
